Assay results taken from IntAct's records for PubMed 19415803.

B1: DNA polymerase III subunit tau (Bacillus subtilis), P09122 (parent)
chain: MSYQALYRVFRPQRFEDVVGQEHITKTLQNALLQKKFSHAYLFSGPRGTGKTSAAKIFAKAVNCEHAPVDEPCNECAACKGITNGSISDVIEIDAASNNGVDEIRDIRDKVKFAPSAVTYKVYIIDEVHMLSIGAFNALLKTLEEPPEHCIFILATTEPHKIPLTIISRCQRFDFKRITSQAIVGRMNKIVDAEQLQVEEGSLEIIASAADGGMRDALSLLDQAISFSGDILKVEDALLITGAVSQLYIGKLAKSLHDKNVSDALETLNELLQQGKDPAKLIEDMIFYFRDMLLYKTAPGLEGVLEKVKVDETFRELSEQIPAQALYEMIDILNKSHQEMKWTNHPRIFFEVAVVKICQTSHQSAADLPEVDMLMKKIQQLEQEVERLKTTGIKAAAESPKKEAPRVPKGGKSNYKAPVGRIHEILKEATRPDLDLLRNSWGKLLAHLKQQNKVSHAALLNDSEPVAAGSAAFVLKFKYEIHCKMVAEDNNGVRTNLEQILESMLGKRMDLIGVPEAQWGKIREEFLEDHQQENEGSNEPAEEDPLIAEAKKLVGADLIEIKD
partner: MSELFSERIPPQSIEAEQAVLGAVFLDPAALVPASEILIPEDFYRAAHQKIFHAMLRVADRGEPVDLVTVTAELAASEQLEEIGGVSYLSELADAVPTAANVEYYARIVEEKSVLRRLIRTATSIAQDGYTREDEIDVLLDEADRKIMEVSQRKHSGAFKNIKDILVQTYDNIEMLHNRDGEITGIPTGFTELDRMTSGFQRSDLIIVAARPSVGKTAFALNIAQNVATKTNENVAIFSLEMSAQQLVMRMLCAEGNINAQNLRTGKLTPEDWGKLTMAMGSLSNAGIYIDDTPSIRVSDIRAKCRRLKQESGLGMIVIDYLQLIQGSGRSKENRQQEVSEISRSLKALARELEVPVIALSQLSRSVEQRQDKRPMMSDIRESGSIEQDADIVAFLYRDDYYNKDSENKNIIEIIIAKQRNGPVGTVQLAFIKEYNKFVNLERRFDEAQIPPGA

Variants of: B1
Conditions: with dnab_geose dnaB

| effect of a mutation on the interaction | Variant |
| --- | --- |
| decreasing interaction strength | MSYQALYRVFRPQRFEDVVGQEHITKTLQNALLQKKFSHAYLFSGPRGTGKTSAAKIFAKAVNCEHAPVDEPCNECAACKGITNGSISDVIEIDAASNNGVDEIRDIRDKVKFAPSAVTYKVYIIDEVHMLSIGAFNALLKTLEEPPEHCIFILATTEPHKIPLTIISRCQRFDFKRITSQAIVGRMNKIVDAEQLQVEEGSLEIIASAADGGMRDALSLLDQAISFSGDILKVEDALLITGAVSQLYIGKLAKSLHDKNVSDALETLNELLQQGKDPAKLIEDMIFYFRDMLLYKTAPGLEGVLEKVKVDETFRELSEQIPAQALYEMIDILNKSHQEMKWTNHPRIFFEVAVVKICQTSHQSAADLPEVDMLMKKIQQLEQEVERLKTTGIKAAAESPKKEAPRVPKGGKSNYKAPVGRIHEILKEATRPDLDLLRNSWGKLLAHLKQQNKVSHAALLNDSEPVAAGSAAFVLKFKYEIHCKMVAEDNNRVRTNLEQILESMLGKRMDLIGVPEAQWGKIREEFLEDHQQENEGSNEPAEEDPLIAEAKKLVGADLIEIKD [G492R] |
| decreasing interaction strength | MSYQALYRVFRPQRFEDVVGQEHITKTLQNALLQKKFSHAYLFSGPRGTGKTSAAKIFAKAVNCEHAPVDEPCNECAACKGITNGSISDVIEIDAASNNGVDEIRDIRDKVKFAPSAVTYKVYIIDEVHMLSIGAFNALLKTLEEPPEHCIFILATTEPHKIPLTIISRCQRFDFKRITSQAIVGRMNKIVDAEQLQVEEGSLEIIASAADGGMRDALSLLDQAISFSGDILKVEDALLITGAVSQLYIGKLAKSLHDKNVSDALETLNELLQQGKDPAKLIEDMIFYFRDMLLYKTAPGLEGVLEKVKVDETFRELSEQIPAQALYEMIDILNKSHQEMKWTNHPRIFFEVAVVKICQTSHQSAADLPEVDMLMKKIQQLEQEVERLKTTGIKAAAESPKKEAPRVPKGGKSNYKAPVGRIHEILKEATRPDLDLLRNSWGKLLAHLKQQNKVSHAALLNDSEPVAAGSAAFVLKFKYEIHCKMVAEDNNGVRTNLEQILESMLGKRMDLIGVPEAQWGKIREEFLEDHQQENEGSNEPAEEDPLIAEVKKLVGADLIEIKD [A550V] |

Second part, the variant before the results:

| Variant | effect of a mutation on the interaction |
| --- | --- |
| MSYQALYRVFRPQRFEDVVGQEHITKTLQNALLQKKFSHAYLFSGPRGTGKTSAAKIFAKAVNCEHAPVDEPCNECAACKGITNGSISDVIEIDAASNNGVDEIRDIRDKVKFAPSAVTYKVYIIDEVHMLSIGAFNALLKTLEEPPEHCIFILATTEPHKIPLTIISRCQRFDFKRITSQAIVGRMNKIVDAEQLQVEEGSLEIIASAADGGMRDALSLLDQAISFSGDILKVEDALLITGAVSQLYIGKLAKSLHDKNVSDALETLNELLQQGKDPAKLIEDMIFYFRDMLLYKTAPGLEGVLEKVKVDETFRELSEQIPAQALYEMIDILNKSHQEMKWTNHPRIFFEVAVVKICQTSHQSAADLPEVDMLMKKIQQLEQEVERLKTTGIKAAAESPKKEAPRVPKGGKSNYKAPVGRIHEILKEATRPDLDLLRNSWGKLLAHLKQQNKVSHAALLNDSEPVAAGSAALVLKFKYEIHCKMVAEDNNGVRTNLEQILESMLGKRMDLIGVPEAQWGKIREEFLEDHQQENEGSNEPAEEDPLIAEAKKLVGADLIEIKD [F473L] | decreasing interaction strength |
| MSYQALYRVFRPQRFEDVVGQEHITKTLQNALLQKKFSHAYLFSGPRGTGKTSAAKIFAKAVNCEHAPVDEPCNECAACKGITNGSISDVIEIDAASNNGVDEIRDIRDKVKFAPSAVTYKVYIIDEVHMLSIGAFNALLKTLEEPPEHCIFILATTEPHKIPLTIISRCQRFDFKRITSQAIVGRMNKIVDAEQLQVEEGSLEIIASAADGGMRDALSLLDQAISFSGDILKVEDALLITGAVSQLYIGKLAKSLHDKNVSDALETLNELLQQGKDPAKLIEDMIFYFRDMLLYKTAPGLEGVLEKVKVDETFRELSEQIPAQALYEMIDILNKSHQEMKWTNHPRIFFEVAVVKICQTSHQSAADLPEVDMLMKKIQQLEQEVERLKTTGIKAAAESPKKEAPRVPKGGKSNYKAPVGRIHEILKEATRPDLDLLRNSWGKLLAHLKQQNKVSHAALLNDSEPVAAGSAAFVLKFKYEIHCKMVAEDNNGVRTNLEQILESMLGKRMSLIGVPEAQWGKIREEFLEDHQQENEGSNEPAEEDPLIAEAKKLVGADLIEIKD [D510S] | decreasing interaction strength |
| MSYQALYRVFRPQRFEDVVGQEHITKTLQNALLQKKFSHAYLFSGPRGTGKTSAAKIFAKAVNCEHAPVDEPCNECAACKGITNGSISDVIEIDAASNNGVDEIRDIRDKVKFAPSAVTYKVYIIDEVHMLSIGAFNALLKTLEEPPEHCIFILATTEPHKIPLTIISRCQRFDFKRITSQAIVGRMNKIVDAEQLQVEEGSLEIIASAADGGMRDALSLLDQAISFSGDILKVEDALLITGAVSQLYIGKLAKSLHDKNVSDALETLNELLQQGKDPAKLIEDMIFYFRDMLLYKTAPGLEGVLEKVKVDETFRELSEQIPAQALYEMIDILNKSHQEMKWTNHPRIFFEVAVVKICQTSHQSAADLPEVDMLMKKIQQLEQEVERLKTTGIKAAAESPKKEAPRVPKGGKSNYKAPVGRIHEILKEATRPDLDLLRNSWGKLLAHLKQQNKVSHAALLNDSEPVAAGSAAFVLKFKYEIHSKMVAEDNNGVRTNLEQILESMLGKRMDLIGVPEAQWGKIREEFLEDHQQENEGSNEPAEEDPLIAEAKKLVGADLIEIKD [C483S] | decreasing interaction strength |
| MSYQALYRVFRPQRFEDVVGQEHITKTLQNALLQKKFSHAYLFSGPRGTGKTSAAKIFAKAVNCEHAPVDEPCNECAACKGITNGSISDVIEIDAASNNGVDEIRDIRDKVKFAPSAVTYKVYIIDEVHMLSIGAFNALLKTLEEPPEHCIFILATTEPHKIPLTIISRCQRFDFKRITSQAIVGRMNKIVDAEQLQVEEGSLEIIASAADGGMRDALSLLDQAISFSGDILKVEDALLITGAVSQLYIGKLAKSLHDKNVSDALETLNELLQQGKDPAKLIEDMIFYFRDMLLYKTAPGLEGVLEKVKVDETFRELSEQIPAQALYEMIDILNKSHQEMKWTNHPRIFFEVAVVKICQTSHQSAADLPEVDMLMKKIQQLEQEVERLKTTGIKAAAESPKKEAPRVPKGGKSNYKAPVGRIHEILKEATRPDLDLLRNSWGKLLAHLKQQNKVSHAALLNDSEPVAAGSAAFVLKFKYEIHCKMVAEDNNGVRTNLEQILESMLGKRMDLIGVPEAQRGKIREEFLEDHQQENEGSNEPAEEDPLIAEAKKLVGADLIEIKD [W519R] | decreasing interaction strength |
